Data taken from patent US20090035321A1, “Intercellular adhesion molecules and their binding ligands” (Boehringer Ingelheim Pharmaceuticals, Inc., published 2009).

Experiments:
ICAM-1 Q1T/KA [1] = target: T1, ICAM-1 Q1T/KA (human, UniProt P05362); assay: flow, COS cells
ICAM-1 Q1/K = ICAM-1 Q1/K (human, UniProt P05362); assay: flow, COS cells
ICAM-1 R13G/EA = ICAM-1 R13G/EA (human, UniProt P05362); assay: flow, COS cells
ICAM-1 R13/E = ICAM-1 R13/E (human, UniProt P05362); assay: flow, COS cells
ICAM-1 D26QPK/ALPE = ICAM-1 D26QPK/ALPE (human, UniProt P05362); assay: flow, COS cells
ICAM-1 K39KE/ERQ = ICAM-1 K39KE/ERQ (human, UniProt P05362); assay: flow, COS cells
ICAM-1 N48/H = ICAM-1 N48/H (human, UniProt P05362); assay: flow, COS cells
ICAM-1 Y52/F = ICAM-1 Y52/F (human, UniProt P05362); assay: flow, COS cells
ICAM-1 Y52/FA = ICAM-1 Y52/FA (human, UniProt P05362); assay: flow, COS cells
ICAM-1 Q58/H = ICAM-1 Q58/H (human, UniProt P05362); assay: flow, COS cells
ICAM-1 E59/K = ICAM-1 E59/K (human, UniProt P05362); assay: flow, COS cells
ICAM-1 E59/Q = ICAM-1 E59/Q (human, UniProt P05362); assay: flow, COS cells
ICAM-1 D60/K = ICAM-1 D60/K (human, UniProt P05362); assay: flow, COS cells
ICAM-1 D60/Q [2] = target: T2, ICAM-1 D60/Q (human, UniProt P05362); assay: flow, COS cells
ICAM-1 S61/I = ICAM-1 S61/I (human, UniProt P05362); assay: flow, COS cells
ICAM-1 Q62PM/API = ICAM-1 Q62PM/API (human, UniProt P05362); assay: flow, COS cells
ICAM-1 M64/I = ICAM-1 M64/I (human, UniProt P05362); assay: flow, COS cells
ICAM-1 D71GQS/NGEL = ICAM-1 D71GQS/NGEL (human, UniProt P05362); assay: flow, COS cells
ICAM-1 Q73/T = ICAM-1 Q73/T (human, UniProt P05362); assay: flow, COS cells
ICAM-1 S74/A = ICAM-1 S74/A (human, UniProt P05362); assay: flow, COS cells
ICAM-1 Y83/S [3] = target: T3, ICAM-1 Y83/S (human, UniProt P05362); assay: flow, COS cells
ICAM-1 G101K/AN [4] = target: T4, ICAM-1 G101K/AN (human, UniProt P05362); assay: flow, COS cells
ICAM-1 N103/K = ICAM-1 N103/K (human, UniProt P05362); assay: flow, COS cells
ICAM-1 E111GGA/KAGS [5] = target: T5, ICAM-1 E111GGA/KAGS (human, UniProt P05362); assay: flow, COS cells
ICAM-1 N118/Q = ICAM-1 N118/Q (human, UniProt P05362); assay: flow, COS cells
ICAM-1 K128/R = ICAM-1 K128/R (human, UniProt P05362); assay: flow, COS cells
ICAM-1 N156/E = ICAM-1 N156/E (human, UniProt P05362); assay: flow, COS cells
ICAM-1 D229QR/HLE = ICAM-1 D229QR/HLE (human, UniProt P05362); assay: flow, COS cells
ICAM-1 Q1T/KA [6] = target: T1, ICAM-1 Q1T/KA; assay: COS cells on LFA-1 coated plastic
ICAM-1 S3/T = ICAM-1 S3/T (human, UniProt P05362); assay: COS cells on LFA-1 coated plastic
ICAM-1 R13/K = ICAM-1 R13/K (human, UniProt P05362); assay: COS cells on LFA-1 coated plastic
ICAM-1 R13/Q = ICAM-1 R13/Q (human, UniProt P05362); assay: COS cells on LFA-1 coated plastic
ICAM-1 S24/A = ICAM-1 S24/A (human, UniProt P05362); assay: COS cells on LFA-1 coated plastic
ICAM-1 Q27/L = ICAM-1 Q27/L (human, UniProt P05362); assay: COS cells on LFA-1 coated plastic
ICAM-1 K40/A = ICAM-1 K40/A (human, UniProt P05362); assay: COS cells on LFA-1 coated plastic
ICAM-1 R49KV/EKL = ICAM-1 R49KV/EKL (human, UniProt P05362); assay: COS cells on LFA-1 coated plastic
ICAM-1 Q58EDS/AKDI = ICAM-1 Q58EDS/AKDI (human, UniProt P05362); assay: COS cells on LFA-1 coated plastic
ICAM-1 D60/Q [7] = target: T2, ICAM-1 D60/Q; assay: COS cells on LFA-1 coated plastic
ICAM-1 D71/N = ICAM-1 D71/N (human, UniProt P05362); assay: COS cells on LFA-1 coated plastic
ICAM-1 Y83/S [8] = target: T3, ICAM-1 Y83/S; assay: COS cells on LFA-1 coated plastic
ICAM-1 E90/Q = ICAM-1 E90/Q (human, UniProt P05362); assay: COS cells on LFA-1 coated plastic
ICAM-1 L91/A = ICAM-1 L91/A (human, UniProt P05362); assay: COS cells on LFA-1 coated plastic
ICAM-1 G101K/AN [9] = target: T4, ICAM-1 G101K/AN; assay: COS cells on LFA-1 coated plastic
ICAM-1 E111GGA/KAGS [10] = target: T5, ICAM-1 E111GGA/KAGS; assay: COS cells on LFA-1 coated plastic
ICAM-1 E127/R = ICAM-1 E127/R (human, UniProt P05362); assay: COS cells on LFA-1 coated plastic
ICAM-1 R166PQ/EPA = ICAM-1 R166PQ/EPA (human, UniProt P05362); assay: COS cells on LFA-1 coated plastic
ICAM-1 N175/A = ICAM-1 N175/A (human, UniProt P05362); assay: COS cells on LFA-1 coated plastic
ICAM-1 A178/G = ICAM-1 A178/G (human, UniProt P05362); assay: COS cells on LFA-1 coated plastic
ICAM-1 D203TQ/TAD = ICAM-1 D203TQ/TAD (human, UniProt P05362); assay: COS cells on LFA-1 coated plastic

Substance monoclonal antibody CL203 has an SLFI % WT (ICAM-1 Q1T/KA [1]) of 230 % WT, an SLFI % WT (ICAM-1 Q1/K) of 168 % WT and an SLFI % WT (ICAM-1 R13G/EA) of 132 % WT. The SLFI % WT (ICAM-1 R13/E) was 202 % WT, the SLFI % WT (ICAM-1 D26QPK/ALPE) was 126 % WT and the SLFI % WT (ICAM-1 K39KE/ERQ) was 84 % WT. It also gave an SLFI % WT (ICAM-1 N48/H) of 164 % WT, an SLFI % WT (ICAM-1 Y52/F) of 152 % WT and an SLFI % WT (ICAM-1 Y52/FA) of 100 % WT. For the same substance, the SLFI % WT (ICAM-1 Q58/H) was 135 % WT, the SLFI % WT (ICAM-1 E59/K) was 130 % WT and the SLFI % WT (ICAM-1 E59/Q) was 195 % WT. For the same substance, the SLFI % WT (ICAM-1 D60/K) was 89 % WT, the SLFI % WT (ICAM-1 D60/Q [2]) was 80 % WT and the SLFI % WT (ICAM-1 S61/I) was 140 % WT. The SLFI % WT (ICAM-1 Q62PM/API) was 200 % WT, the SLFI % WT (ICAM-1 M64/I) was 183 % WT and the SLFI % WT (ICAM-1 D71GQS/NGEL) was 161 % WT. The SLFI % WT (ICAM-1 Q73/T) was 218 % WT, the SLFI % WT (ICAM-1 S74/A) was 129 % WT and the SLFI % WT (ICAM-1 Y83/S [3]) was 125 % WT. The SLFI % WT (ICAM-1 G101K/AN [4]) was 142 % WT, the SLFI % WT (ICAM-1 N103/K) was 91 % WT and the SLFI % WT (ICAM-1 E111GGA/KAGS [5]) was 122 % WT. For the same substance, the SLFI % WT (ICAM-1 N118/Q) was 139 % WT, the SLFI % WT (ICAM-1 K128/R) was 190 % WT and the SLFI % WT (ICAM-1 N156/E) was 182 % WT. For the same substance, the SLFI % WT (ICAM-1 D229QR/HLE) was 210 % WT.

In the case of “purified LFA-1, bound to plastic (from UniProt P20701) (receptor)”, the LFA-1 Binding % (% of wild type) (ICAM-1 Q1T/KA [6]) is reported as 119, the LFA-1 Binding % (% of wild type) (ICAM-1 S3/T) is reported as 149 and the LFA-1 Binding % (% of wild type) (ICAM-1 R13/K) is reported as 98. The LFA-1 Binding % (% of wild type) (ICAM-1 R13/Q) was 78, the LFA-1 Binding % (% of wild type) (ICAM-1 S24/A) was 80 and the LFA-1 Binding % (% of wild type) (ICAM-1 Q27/L) was 37. The LFA-1 Binding % (% of wild type) (ICAM-1 K40/A) was 124, the LFA-1 Binding % (% of wild type) (ICAM-1 R49KV/EKL) was 123 and the LFA-1 Binding % (% of wild type) (ICAM-1 Q58EDS/AKDI) was 3. The LFA-1 Binding % (% of wild type) (ICAM-1 D60/Q [7]) was 18, the LFA-1 Binding % (% of wild type) (ICAM-1 D71/N) was 79 and the LFA-1 Binding % (% of wild type) (ICAM-1 Y83/S [8]) was 42. The LFA-1 Binding % (% of wild type) (ICAM-1 E90/Q) was 122, the LFA-1 Binding % (% of wild type) (ICAM-1 L91/A) was 87 and the LFA-1 Binding % (% of wild type) (ICAM-1 G101K/AN [9]) was 97. The LFA-1 Binding % (% of wild type) (ICAM-1 E111GGA/KAGS [10]) was 103, the LFA-1 Binding % (% of wild type) (ICAM-1 E127/R) was 82 and the LFA-1 Binding % (% of wild type) (ICAM-1 R166PQ/EPA) was 75. It also gave an LFA-1 Binding % (% of wild type) (ICAM-1 N175/A) of 67, an LFA-1 Binding % (% of wild type) (ICAM-1 A178/G) of 59 and an LFA-1 Binding % (% of wild type) (ICAM-1 D203TQ/TAD) of 91.
